Results on 31 sequences are retold here after the supplement of paper PMC9170038.

The subject of this data set is MS2 coat protein. Description: apparent KD of MS2 coat protein; designed switch direction (-1 OFF switch, 1 ON switch): -1; higher = weaker reporter binding. The gist of the method: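 SNAP-549-labelled MS2 coat protein was titrated, doubling from 0.7 or 1.5 nM to 3 µM, over designed RNA switches transcribed on Illumina chips by stalled E. coli RNA polymerase. Runs were done without input, with 200 uM small-molecule ligand, or with an oligonucleotide input. Apparent KD is the per-design median over clusters of curve-fitted normalised fluorescence.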

Setting [1] is: Eterna round: R95, input ligand: FMN 200 uM.
The mark [2] stands for this setting: Eterna round: R95, input ligand: microRNA oligo, concentration not stated.
The mark [3] stands for this setting: Eterna round: R95, input ligand: none.
[4] abbreviates: input ligand: microRNA oligo, concentration not stated.

Take “ACAUGGAAGCAGGAUAUGCUUGUAUAAUUGAAAGCAGAAGGGCUAACAUGAGGAUCACCCAUGUAAGAGGUCUA [JR_E6_Sub060] (puzzle: Exclusion 6)”: the “apparent KD of MS2 coat protein” value turned out to be 91 nM under setting [1], 21 nM under setting [2] and 24.7 nM under setting [3].
“CUCGUGUGAGGAUAUCGAUUAUGGAAGUCUAGAUCCAUACGCGAGAAGGCACAUGAGGAUCACCCAUGUAAUGG [jl-ex4-4.35 ViennaUCT mod] (Eterna round: R97, puzzle: Exclusion 4)”: the “apparent KD of MS2 coat protein” value (input ligand: FMN 200 uM) was determined as 68.3 nM and the “apparent KD of MS2 coat protein” value (input ligand: none) stood at 176 nM.
In the same order, the values of “ACAAGCUUGUAAUGAUUGAACAUGAGGAUCACCCAUGUAAAUGGAAGAACCAACUUGAUAUGAUUUACUCGUCUUAU [JR_STOV1_Sub011] (Eterna round: R97, puzzle: Sensor, turn-off variant 1)” are 676 nM and 546 nM.
For “GCUGGUCGAGGAUAUACAUGAGGAUCACCCAUGUGGUCACGUGACGAUAGUCACGAAUGUAGAAGGCGACCAGC [E3/3-A1] (Eterna round: R97, puzzle: Exclusion 3)”, in that order: 66.9 nM and 161 nM.
As to “AAGGAUAGAGGAUAUACAUAGAUACAGGUUCAUGUAGAACUACAUGAGGAUCACCCAUGUAGAAGGCUAUCCUA [Fiskers Ex 2 - 8] (puzzle: Exclusion 2)”, the “apparent KD of MS2 coat protein” value by setting is: under setting [1], 113 nM; under setting [2], 20.8 nM; under setting [3], 21.1 nM.
As for “AACCUGAGGCUUUGCUUUAGGUGUACAUGAGGAUCACCCAUGUAGGAUAUGGUAGGCUUUGCUUACCAGAAGGACAUUAUGAUU [JL ENG3 1.18] (Eterna round: R96, puzzle: Exclusion NG 3)”, the “apparent KD of MS2 coat protein” value worked out at 119 nM (input ligand: FMN 200 uM), 33.4 nM under setting [4] and 37.1 nM (input ligand: none).
For “UCCUCACAUGAGGAUCACCCAUGUCAGGAUAUCCAGUUGGGCCUCUGUAGAGGCGCCAGGAGAAGGGAUAAGGA [Ceenerso] (Eterna round: R97, puzzle: Exclusion 1)”, the “apparent KD of MS2 coat protein” value by setting is: (input ligand: FMN 200 uM) 35.9 nM; (input ligand: none) 22.3 nM.
For “GCGUGAAGGCAGGAUAUAAGAAAAGAAAGAAAAUUAGAAGGGCCGACAUGAGGAUCACCCAUGUGGGCAUGAUC [Xeorusza] (Eterna round: R97, puzzle: Exclusion 6)”, in that order: 33.8 nM and 15.9 nM.
In the same order, the values of “UUUUAGUCAGGAUAUACAUGAGGAUCACCCAUGUAAAAUUUUAAUUUAAUUUGAAUGUGUAGAAGGGACAUUUU [Ex3 #41] (Eterna round: R97, puzzle: Exclusion 3)” are 23.6 nM and 26.4 nM.
In the same order, the values of “AUGAGGUGAGGAUAUACGAGAUGAUAUUGCAGAGCAAGUCAGUAGAAGGCACAUGAGGAUCACCCAUGUUCGGG [Eternabot (L2) Solution 93] (Eterna round: R97, puzzle: Exclusion 4)” are 269 nM and 397 nM.
With “AGAUGCUUAAGUCGACAUGAGGAUCACCCAUGUACAGUUAACGAGGAUAUCCGAGAUAAAUAAUAGGAGAAGGCGUGAUCAUGA [Ex NG3 #2] (Eterna round: R96, puzzle: Exclusion NG 3)”, the “apparent KD of MS2 coat protein” value is 56.6 nM (input ligand: FMN 200 uM), 363 nM under setting [4] and 277 nM (input ligand: none).
In the same order, the values of “AUUAUAUAGACAGGAUAUUGAUUAUUAUUUUAACAUGAGGAUCACCCAUGUAACCUUAUGUAUAGCAAGAAGGGUCAUUUAUUA [Title] (Eterna round: R96, puzzle: Exclusion NG 2)” are 107 nM, 72.9 nM and 75.6 nM.
For the sequence “GGUUUGCAGCAGGAUAUCCAUCCGCGGUAUGGUGGAGAAGGGCUGACAUGAGGAUCACCCAUGUGCGUCCUAGG [salish99_ex6_r4_017] (Eterna round: R97, puzzle: Exclusion 6)”, the “apparent KD of MS2 coat protein” value by setting is: (input ligand: FMN 200 uM) 58.6 nM; (input ligand: none) 27.6 nM.
In the same order, the values of “ACACUGCGAGGAUAUACAUGAGGAUCACCCAUGUUAAGGAAGUCAAGGUUAAUUUAAGGUAGAAGGCGCUUAUU [JR_Ex3_Sub013] (Eterna round: R97, puzzle: Exclusion 3)” are 46.2 nM and 39.7 nM.
For “GUUUCACAUGAGGAUCACCCAUGUGAGGAUAUACAUUUGUUAACCGUAGUUAAUAGAUGUAGAAGGCGCGUGAU [JRxlusion 4 - Jieux - Exclusion 1] (Eterna round: R97, puzzle: Exclusion 1)”, in that order: 50.6 nM and 62.6 nM.
Regarding “AAACCUGCCCAUGACCGCAAGCUUUUUGCUUGUCUCACCACAUGAGGAUCACCCAUGUGACAUGGGCUCCUUAUAAA [Orvesovera] (puzzle: Sensor v3, turn-off variant 2)”, the “apparent KD of MS2 coat protein” value runs as follows: under setting [1], 13.7 nM; under setting [2], 9.96 nM; under setting [3], 12 nM.
As for “GUUGGUUGAGAGGAUAUUGUACGCGAUGAGUGUCGAGAAGGUUCAACAUGAGGAUCACCCAUGUGGCUGAGUAA [Eternabot (L1) Solution 40] (Eterna round: R97, puzzle: Exclusion 6)”, the “apparent KD of MS2 coat protein” value by setting is: (input ligand: FMN 200 uM) 442 nM; (input ligand: none) 32.1 nM.
Turning to “GGUGCGUUUGUGAGGAUAUGCUGGUCCUUGGAUCUGCAGAAGGCACAUGAGGAUCACCCAUGUGGUGUCGUACC [salish99_Bmod_Ex4_036] (puzzle: Brourd's mod of Exclusion 4)”, the “apparent KD of MS2 coat protein” value under setting [2] was 208 nM.
Regarding “AACGAGUGAGGAUAUCUUGACGGUUUGCAUCAGGCCCUCACAGAGAAGGCACUUGAGGAUCACCCAAGUGACCA [Eredgeinus] (Eterna round: R97, puzzle: Exclusion 4)”, the “apparent KD of MS2 coat protein” value was 16.5 nM (input ligand: FMN 200 uM) and 14.2 nM (input ligand: none).
Regarding “ACAUGGAAGCAGGAUAUGCUUGUAUAAUUGUUUGCAGAAGGGCUAACAUGAGGAUCACCCAUGUAAGAGGUCUA [JR_E6_Sub061] (puzzle: Exclusion 6)”, the “apparent KD of MS2 coat protein” value under setting [2] was 15.9 nM.
In the case of “UACAUGAGGAUCACCCAUGUUUUGUCGUGUAUGGUAUUUAUCUAGGAUAUCAAGUUAUUUGUUUAUGAGAAGGAGAAUAUUAAU [JMF's solution 33] (Eterna round: R96, puzzle: Exclusion NG 3)”, the “apparent KD of MS2 coat protein” value reads like this: (input ligand: FMN 200 uM) 37.1 nM; under setting [4], 26.1 nM; (input ligand: none) 37.1 nM.
Consider “UUUUAUUGCAAGGAUAUGCAAAUUAUUAUUAAUGCAGAAGGUGCUACAUGAGGAUCACCCAUGUUUCUGGGUUU [JR_E6_Sub043] (puzzle: Exclusion 6)”, for which the “apparent KD of MS2 coat protein” value under setting [2] amounted to 110 nM.
With “UAUUUACAUGAGGAUCACCCAUGUCAGGAUAUGUUUCUAUCGUCGAAAGACGAUAUUUGCAGAAGGGACAAUAU [LRO-Excl01-26 mod derived from EliFisker 4.24] (Eterna round: R97, puzzle: Exclusion 1)”, the “apparent KD of MS2 coat protein” value (input ligand: FMN 200 uM) turned out to be 64.4 nM and the “apparent KD of MS2 coat protein” value (input ligand: none) came to 27.9 nM.
Regarding “CGUUGGCGAGGAUAUACAUGAGGAUCACCCAUGUGAGAGAAAAAAGUGAGGAAGAAAAGUAGAAGGCGCUGACC [salish99_ex3_r3_049] (puzzle: Exclusion 3)”, the “apparent KD of MS2 coat protein” value by setting is: under setting [1], 110 nM; under setting [2], 42.7 nM; under setting [3], 45.9 nM.
Regarding “GGUACCUCUGUUAGGAUAUUGUUAGUGUGAAGCGACGAGAAGGAACAUGAGGAUCACCCAUGUUGCAUCGUAAA [Eternabot (L2) Solution 54] (Eterna round: R97, puzzle: Brourd's mod of Exclusion 4)”, the “apparent KD of MS2 coat protein” value reads like this: (input ligand: FMN 200 uM) 152 nM; (input ligand: none) 27.1 nM.
As to “GAUAUGUAAGGAUAUCUAGAAACGAGCGCAGGCUCAAGAAAAGAGAAGGUACAUGAGGAUCACCCAUGUUCCUG [EX4 A.13] (Eterna round: R97, puzzle: Exclusion 4)”, the “apparent KD of MS2 coat protein” value is 21.1 nM (input ligand: FMN 200 uM) and 17.9 nM (input ligand: none).
“CUUUUGUGAGGAUAUCAGUAGUAAAUUAAUAAAAUUACUACUGAGAAGGCACAUGAGGAUCACCCAUGUUCCUC [salish99_ex3_r3_078] (puzzle: Exclusion 4)”: the “apparent KD of MS2 coat protein” value under setting [2] turned out to be 41.9 nM.
In the case of “GAAAAGGAAGGAUAUACGAAAAAAAAGGGUAGAAAAAAAACACAUGAGGAUCACCCAUGUAGAAGGUCCAAAAG [salish99_ex2_r3_092] (puzzle: Exclusion 2)”, the “apparent KD of MS2 coat protein” value is 151 nM under setting [1], 43.5 nM under setting [2] and 54.5 nM under setting [3].
For the sequence “GGCUCGCCUCACAUGAGGAUCACCCAUGUACAAAACAAGAGGCAGGAUAUGGGCCGCGCAGCGGGCCAGAAGGGCCGCAUGGGU [Edsodidige] (Eterna round: R96, puzzle: Exclusion NG 3)”, the “apparent KD of MS2 coat protein” value reads like this: (input ligand: FMN 200 uM) 62.9 nM; under setting [4], 67.7 nM; (input ligand: none) 113 nM.
For the sequence “UAUUAGCAAGCAAGAUCCCACAUGAGGAUCACCCAUGUGCUCGUCUUAUAAGGUACUGUGACGAUAGUCACGGUACC [Mat - Sensor, turn-off var - Eli Mod - D46] (Eterna round: R97, puzzle: Sensor, turn-off variant 1)”, the “apparent KD of MS2 coat protein” value reads like this: (input ligand: FMN 200 uM) 60.5 nM; (input ligand: none) 54.1 nM.
In the same order, the values of “GCGCUGUCAGGAUAUCGCGCGCGCGCGGAAAUGUGUGUGUGUGAGAAGGGACAUGAGGAUCACCCAUGUGGUGU [-28.5, -27.5 kcal, A 20%, 6-6bis] (Eterna round: R97, puzzle: Exclusion 4)” are 213 nM and 583 nM.
